The assay has as its target HA-tagged NR4A3 (UniProt Q92570 1-626). Briefly: cell-based or functional assay.

Sequence of HA-tagged NR4A3 (Q92570 whole entry): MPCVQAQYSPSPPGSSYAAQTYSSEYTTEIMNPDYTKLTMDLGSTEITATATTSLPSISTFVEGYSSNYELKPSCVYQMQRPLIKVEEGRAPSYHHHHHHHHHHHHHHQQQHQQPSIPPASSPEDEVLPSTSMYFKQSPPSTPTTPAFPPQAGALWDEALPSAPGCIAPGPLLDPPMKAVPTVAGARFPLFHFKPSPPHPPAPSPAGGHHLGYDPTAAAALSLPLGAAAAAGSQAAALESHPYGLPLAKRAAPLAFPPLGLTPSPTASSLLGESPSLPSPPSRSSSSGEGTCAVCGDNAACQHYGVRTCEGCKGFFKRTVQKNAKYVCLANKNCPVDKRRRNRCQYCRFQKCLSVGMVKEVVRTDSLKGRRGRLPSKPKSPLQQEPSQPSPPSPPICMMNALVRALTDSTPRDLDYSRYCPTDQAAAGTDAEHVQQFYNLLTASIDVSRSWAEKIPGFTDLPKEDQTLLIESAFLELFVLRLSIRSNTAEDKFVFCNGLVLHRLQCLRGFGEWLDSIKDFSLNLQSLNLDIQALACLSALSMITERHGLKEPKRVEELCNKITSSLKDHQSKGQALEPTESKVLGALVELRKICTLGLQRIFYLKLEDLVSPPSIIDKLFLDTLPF

B1: Myb (natural protein)
chain: not shown
As for B1, the “activation of the NurRE luciferase reporter in HeLa cells on co-expression of full-length Myb with NR4A3 (NR4A3 by itself 6-fold)” value is 27 fold.

The record behind these values is article PMC7565926, “Oncogenic Orphan Nuclear Receptor NR4A3 Interacts and Cooperates with MYB in Acinic Cell Carcinoma” (Cancers, 2020).
